Experiments:
[1] = substrate: CC(=O)Oc1ccc([N+](=O)[O-])cc1; assay: EstFA hydrolysis of p-nitrophenol esters and triglycerides; type: biochemical, Ferroplasma acidiphilum; conditions: other: EstFA expressed in E. coli
Description: (§1) Hydrolysis of p-nitrophenol propionate was observed spectrophotometrically at 405 nm, optionally in and 96-well plates. The substrate specificity of acidic esterase EstFA obtainable from Ferroplasma acidiphilum was characterized using the heterologously expressed EstFA of Example 6 (expressed in E. coli), using p-nitrophenol esters and triglycerides as summarised in following Table IV:
(§2) The above substrate specificities were tested in 96-well plates, using 100 mM citrate buffer (pH 2.0) in the presence of 5 μg pure EstFA. For the substrate, the concentrations between 10 nM and 10 mM were chosen. Progress of the reaction was followed by spectrophotometry using p-nitrophenol propionate as an indicator. The reaction was stopped after 10 hours by adjusting the pH to 8.0 by adding sodium hydroxide from a 100 mM stock solution and phenol red (0.8 mM) as a pH indicator. Activities and selectivities were examined according to Mam Fai Lui et al. (2001). Ester hydrolysis of enantiomerically pure esters was measured colorimetrically in 5.0 mM EPPS buffer (N-(2-hydroxyethyl) piperazine-N′-(3′-propanesulfonic acid) at pH 8.0 and phenol red after termination of the reaction.

[2] = substrate: CCC(=O)Oc1ccc([N+](=O)[O-])cc1; assay: as above; type: biochemical, Ferroplasma acidiphilum; conditions: other: EstFA expressed in E. coli
Description: as §1, §2

[3] = substrate: CCCC(=O)OCC(COC(=O)CCC)OC(=O)CCC; assay: as above; type: biochemical, Ferroplasma acidiphilum; conditions: other: EstFA expressed in E. coli
Description: as §1, §2

[4] = substrate: CCCC(=O)Oc1ccc([N+](=O)[O-])cc1; assay: as above; type: biochemical, Ferroplasma acidiphilum; conditions: other: EstFA expressed in E. coli
Description: as §1, §2

[5] = substrate: CCCCCCCC(=O)Oc1ccc([N+](=O)[O-])cc1; assay: as above; type: biochemical, Ferroplasma acidiphilum; conditions: other: EstFA expressed in E. coli
Description: as §1, §2

[6] = substrate: CCCCCCCCCC(=O)Oc1ccc([N+](=O)[O-])cc1; assay: as above; type: biochemical, Ferroplasma acidiphilum; conditions: other: EstFA expressed in E. coli
Description: as §1, §2

[7] = substrate: CCCCCCCCCCCC(=O)Oc1ccc([N+](=O)[O-])cc1; assay: as above; type: biochemical, Ferroplasma acidiphilum; conditions: other: EstFA expressed in E. coli
Description: as §1, §2

[8] = pH and temperature dependence, stability and activity of recombinant acidic enzymes; type: biochemical; conditions: for enzymatic stability at elevated temperatures: FIG. 2, LigFA pH 3.0, EstFA and αGluFA pH 2.0 at 40 and 50° C., GlyFA1 and GlyFA2 pH 4.0 at 40° C.; for Optimum temperature: measured at optimum pH
Description: The acidic enzymes according to the invention were expressed in E. coli using the genomiccoding sequence for the respective enzyme from Ferroplasma acidiphilum, which are described in detail below. For enzymatic conversions, reaction conditions were in 100 mM sodium acetate buffer, 100 mM citrate buffer, 100 mM HEPES buffer for 2 minutes at 30° C., using p-nitrophenol propionate as the substrate for esterase, starch in the case of glycosidases, and HindIII digested λ DNA for ligase.
The activity was assayed using p-nitrophenol propionate as a substrate for esterase, starch for αGluFA and GlyFA1, GlyFA2, and HindIII digested λ DNA for LigFA.
The acidic enzymes according to the invention in vitro show similar elevated reaction temperatures. Substrates were as described for FIG. 2 above.
An overview of catalytic and molecular properties of acidic enzymes that were heterologously expressed in E. coli is given in the following Table III: […]

[9] = Fe2+ content (ICP-MS) and Fe2+ dependence of activity, dialysis against EDTA; type: biochemical; conditions: relative to wild type = 100; after dialysis against 1 mM EDTA; 100 mM sodium citrate, 10 mM FeCl2
Description: The UV-VIS absorption spectra of purified acidic enzymes are shown in FIG. 4, wherein the uninterrupted lines refer to Fe^2+ containing enzymes and the interrupted lines refer to enzymes after dialysis against EDTA containing buffer. The λ-max values found at ca. 572 nm correlate with the Fe^2+ content, i.e. disappear after incubation with EDTA or DTT for 24 h. ICP-MS analysis confirmed the presence of 0.82±0.10 mol Fe in EstFA, 0.34±0.08 mol Fe in αGluFA, […] and 0.63±0.09 mol Fe in LigFA.
In FIG. 5, relative activities of acidic enzymes with varying content of Fe^2+ are shown. For analysis, purified enzymes were incubated in 1 mM EDTA. At time intervals indicated, two aliquots were removed, one was used for hydrolysis of respective substrates, the other for ICP-MS analysis of Fe. For relative activities, activities before incubation with EDTA were used as 100% values.
When further investigating the dependence of the acidic enzymes according to the invention on Fe^2+, relative activity for EstFA, αGluFA and LigFA were investigated for their natural Fe^2+ content, e.g. wild-type, which was set to 100%, in comparison to the activity after dialysis against a 1 mM EDTA containing buffer.

[10] = Transglucosylation of maltose catalyzed by αGluFA; type: biochemical
Text: αGluFA is also suitable for the transfer of glucosyl groups from maltose to selectively produce a maltotriose. […] The reaction was followed by HPLC measurements.

[11] = measured at optimum temperature

B1: EstFA (Ferroplasma acidiphilum) (protein)
chain: MHLMNMVDPDFNSLIELSKSAGDMTKIEPAMLRNFLDESSLSSRGAPVEIKEIKDYKIKLDGRTLNARMYDDNNAKSAILYYHGGGFLFGNIETYDNYCRFLAKESGVKIISIEYRLAPEHKFPDAFNDAYDSFHYIAKKKKDFGIEGRIGVAGDSAGANLAAALCLKCRDGKTEMPAVQVLFYPSLAPDNFSRSFIEYSDNYVLTGKMIRYFGNMYSKNMQDLINPYFSPLVADDFSNLPPAIMVTNEYDPLRDPEETYVKKLREAGVRAVGIRGIGMIHGSATDFEVSDGARNIVKMVARIIPDYL
Km [1]: 0.39 ± 0.08 mg/mL | kcat [1]: 860 ± 21 s⁻¹ | Km [2]: 0.20 ± 0.04 mg/mL | kcat [2]: 1190 ± 25 s⁻¹ | Km [3]: 1.75 ± 0.14 mg/mL | kcat [3]: 1890 ± 27 s⁻¹ | Km [4]: 1.75 ± 0.12 mg/mL | kcat [4]: 2300 ± 30 s⁻¹ | Km [5]: 1.68 ± 0.12 mg/mL | kcat [5]: 239 ± 12 s⁻¹ | Km [6]: 4.30 ± 0.42 mg/mL | kcat [6]: 179 ± 4 s⁻¹ | Km [7]: 4.41 ± 0.38 mg/mL | kcat [7]: 120 ± 4 s⁻¹

B2: αGluFA: acidic glucosidase from Ferroplasma acidiphilum, 531 amino acids, Seq ID No. 11 (protein, listed as Ferroplasma acidiphilum)
chain: INSLYILNHKVIIAVAVSAILIAMVFAGANIPYPGYNPTDHLISGKHPISNVSEVPKNFTLSGNVSNSNNNLPLSGTITVSNSTMSRTFNTSSNGSYNITLPQGNYSISSSIPGFQNYSSTINLDSNKTQNISTPPATTIGNGINQVPGSTNVSTLVPYLNNSIMSGGLNTDNITGTFDKNITIDLGKKLNNTQFVVLMKLDGAVYSYNWVTNGSGMAKLFLKYSGNYTMSAYTLYYNSSVIHYNTANNDTARFNMTERITFISSVILQSAVPLHDNSSVANSTLTVKGGVFSVPSLSVNSNLTGTYYKYEVPVGFYNFAYSNAHYVSKNFGVDVTGNSTVNKTIDPYLISINIRNNTGNTFNYTLGSTFYSGNGIHMATSGITTLLVFHDGKIVYDNTILLTSANPYYQLNLTISNKNLTFNGIETDSTNLSIVYSGNVTSNFYIASLEFENFSTSATNGMIIISGAASGSYPLDSGLYTYNMSQSLPTSAGNLTIKLVYDNDSKVSTDGRMTVEVYGYNISTLGNYITE
modifications: CDS (1)..(1596) alpha glu FA, in Figure 11 designated sequence 5a
enzymatic stability at elevated temperatures [8]: good stability | enzymatic activity retained ([8]; at 65° C.): approximately 50% | temperature up to which the enzyme was stable ([8]; for 60 minutes): up to 60 °C | Optimum pH ([8]; in the presence of Fe2+): 2.0 | Optimum temperature [8]: 60 °C | Optimum pH [8, 11]: 2.5-3.0 | original activity retained ([8]; pH 1.5 to 3.9, incubation at 20° C. over 24 hours): more than 80% | activity, +EDTA [9]: 5.40% | percentage of transglucosylated maltose ([10]; over the course of the reaction): more than 70% | product selectivity of synthesis ([10]; pH 3.0, up to 300 g/L maltotriose): selectively synthesizes maltotriose | maltose ([10]; reaction time 5): 456 g/L | maltotriose ([10]; reaction time 5): 88 g/L | percentage of maltose transglycosylated ([10]; reaction time 5): 70.3% | glucose ([10]; reaction time 5, 600 g/L maltose, pH 3.0, 50° C.): 59 g/L | glucose ([10]; reaction time 10): 76 g/L | maltose ([10]; reaction time 10): 402 g/L | maltotriose ([10]; reaction time 10): 122 g/L | percentage of maltose transglycosylated ([10]; reaction time 10): 72.7% | glucose ([10]; reaction time 20): 112 g/L | maltose ([10]; reaction time 20): 302 g/L | maltotriose ([10]; reaction time 20): 186 g/L | percentage of maltose transglycosylated ([10]; reaction time 20): 74.5% | glucose ([10]; reaction time 30): 153 g/L | maltose ([10]; reaction time 30): 199 g/L | maltotriose ([10]; reaction time 30): 248 g/L | percentage of maltose transglycosylated ([10]; reaction time 30): 73.3% | glucose ([10]; reaction time 60): 165 g/L | maltose ([10]; reaction time 60): 159 g/L | maltotriose ([10]; reaction time 60): 276 g/L | percentage of maltose transglycosylated ([10]; reaction time 60): 74.7% | glucose ([10]; reaction time 180): 185 g/L | maltose ([10]; reaction time 180): 111 g/L | maltotriose ([10]; reaction time 180): 304 g/L | percentage of maltose transglycosylated ([10]; reaction time 180): 74.0%

B3: EstFA: acidophilic, Fe2+ dependent esterase from Ferroplasma acidiphilum, 308 amino acids, Seq ID No. 6 (protein, listed as Ferroplasma acidiphilum)
chain: INSLYILNHKVIIAVAVSAILIAMVFAGANIPYPGYNPTDHLISGKHPISNVSEVPKNFTLSGNVSNSNNNLPLSGTITVSNSTMSRTFNTSSNGSYNITLPQGNYSISSSIPGFQNYSSTINLDSNKTQNISTPPATTIGNGINQVPGSTNVSTLVPYLNNSIMSGGLNTDNITGTFDKNITIDLGKKLNNTQFVVLMKLDGAVYSYNWVTNGSGMAKLFLKYSGNYTMSAYTLYYNSSVIHYNTANNDTARFNMTERITFISSVILQSAVPLHDNSSVANSTLTVKGGVFSVPSLSVNSNLTGTYYKYEVPVGFYNFAYSNAHYVSKNFGVDVTGNSTVNKTIDPYLISINIRNNTGNTFNYTLGSTFYSGNGIHMATSGITTLLVFHDGKIVYDNTILLTSANPYYQLNLTISNKNLTFNGIETDSTNLSIVYSGNVTSNFYIASLEFENFSTSATNGMIIISGAASGSYPLDSGLYTYNMSQSLPTSAGNLTIKLVYDNDSKVSTDGRMTVEVYGYNISTLGNYITE
modifications: PEPTIDE (1)..(531) alpha Glu FA
stability of purified enzyme ([8]; 20 mM citrate buffer, pH 1.5, room temperature): stable | enzymatic stability at elevated temperatures [8]: good stability | Optimum temperature [8]: 50 °C | Optimum pH [8, 11]: 2.0-3.5 | stability at pH values above 5.0 ([8]; pH above 5.0): rapidly inactivated | activity, +EDTA [9]: 0.30%

— patent US8003357B2, “Acidophilic enzymes” (Helmholtz-Zentrum Fuer Infektionsforschung GmbH, priority 2005, dated 2011)
